These results are taken from ChEMBL document CHEMBL1122575, “Dependence of beta-lactamase stability on substructures within beta-lactam antibiotics” (J Med Chem, 1984).

Substrate in data set [1]: CC1(C)S[C@@H]2[C@H](NC(=O)Cc3ccccc3)C(=O)N2[C@H]1C(=O)O
Nature of the data set: (§1) Stability against beta-lactamase of Staphylococcus aureus.

Substrate in data set [2]: COc1cccc(OC)c1C(=O)N[C@@H]1C(=O)N2C1SC(C)(C)C2C(=O)O
The data set is described as §1.

Substrate in data set [3]: CC1(C)SC2[C@H](NC(=O)c3ccccc3)C(=O)N2C1C(=O)O
The description is as §1.

B1: Beta-lactamase (Staphylococcus aureus), P00807 (protein)
chain: MKKLIFLIVIALVLSACNSNSSHAKELNDLEKKYNAHIGVYALDTKSGKEVKFNSDKRFAYASTSKAINSAILLEQVPYNKLNKKVHINKDDIVAYSPILEKYVGKDITLKALIEASMTYSDNTANNKIIKEIGGIKKVKQRLKELGDKVTNPVRYEIELNYYSPKSKKDTSTPAAFGKTLNKLIANGKLSKENKKFLLDLMLNNKSGDTLIKDGVPKDYKVADKSGQAITYASRNDVAFVYPKGQSEPIVLVIFTNKDNKSDKPNDKLISETAKSVMKEF
The term Km denotes the substrate concentration at which the rate is half of its maximum. Consider B1, for which the Km worked out at 12 µM in data set [1], 5000 µM in data set [2] and 33 µM in data set [3].
